This sample holds only a part of the variants without activity.
Columns and labels:
biotinyl-Met-oxazolone = assay: self-aminoacylation, catalytic enhancement (BMO) (fold over background); higher = more active; k-Seq, kA / k0A0; sequences stand for … in GGGAAUGGAUCCACAUCUACGAAUUC…UUCACUGCAGACUUGACGAAGCUG
Procedure, shortened: (§1)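 Catalytic enhancement equals the median kA over the uncatalyzed rate, the latter read from the low-activity peak of a bimodal Gaussian fit. Values of kA came from fitting each sequence's fraction reacted to a pseudo-first-order model, with 1000 bootstraps. Reacted RNA was captured with streptavidin and quantified by triplicate qPCR and Illumina sequencing after 90 minutes at room temperature with 2–1250 μM biotinyl-aminoacyl-oxazolone and 0.43 μM mutagenized RNA pools bearing a 21-nt variable region.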

biotinyl-Phe-oxazolone = assay: self-aminoacylation, catalytic enhancement (BFO) (fold over background); higher = more active; k-Seq, kA / k0A0; sequences stand for … in GGGAAUGGAUCCACAUCUACGAAUUC…UUCACUGCAGACUUGACGAAGCUG
Procedure, shortened: as §1

biotinyl-Ile-oxazolone = assay: self-aminoacylation, catalytic enhancement (BIO) (fold over background); higher = more active; k-Seq, kA / k0A0; sequences stand for … in GGGAAUGGAUCCACAUCUACGAAUUC…UUCACUGCAGACUUGACGAAGCUG
Procedure, shortened: as §1

biotinyl-Val-oxazolone = assay: self-aminoacylation, catalytic enhancement (BVO) (fold over background); higher = more active; k-Seq, kA / k0A0; sequences stand for … in GGGAAUGGAUCCACAUCUACGAAUUC…UUCACUGCAGACUUGACGAAGCUG
Procedure, shortened: as §1

biotinyl-Leu-oxazolone = assay: self-aminoacylation, catalytic enhancement (BLO) (fold over background); higher = more active; k-Seq, kA / k0A0; sequences stand for … in GGGAAUGGAUCCACAUCUACGAAUUC…UUCACUGCAGACUUGACGAAGCUG
Procedure, shortened: as §1

biotinyl-Trp-oxazolone = assay: self-aminoacylation, catalytic enhancement (BWO) (fold over background); higher = more active; k-Seq, kA / k0A0; sequences stand for … in GGGAAUGGAUCCACAUCUACGAAUUC…UUCACUGCAGACUUGACGAAGCUG
Procedure, shortened: as §1

Sequence | self-aminoacylation (biotinyl-Met-oxazolone) | self-aminoacylation (biotinyl-Phe-oxazolone) | self-aminoacylation (biotinyl-Ile-oxazolone) | self-aminoacylation (biotinyl-Val-oxazolone) | self-aminoacylation (biotinyl-Leu-oxazolone) | self-aminoacylation (biotinyl-Trp-oxazolone)
GUCCACCUAGGUCAUCGGGUG [Fam2.2 aminoacylation ribozyme variant] | 4.1 | 35.1 | 4.43 | 4.67 | 4.46 | 6.85
AUUACCCUCGUCAUCUAGUGA [Fam2.1 aminoacylation ribozyme variant] | 3.26 | 9.86 | 2.3 | 2.7 | 3.57 | 4.43
ACUACCCUGGUCAUUGAGUGA [Fam2.1 aminoacylation ribozyme variant] | 7.75 | 34 | 4.12 | 4.05 | 8.8 | 8.89
AUUACCCUGGUCAGCGAGAGA [Fam2.1 aminoacylation ribozyme variant] | 1.27 | 0.961 | 1.43 | 1.51 | 1.26 | 1.54
CCACGCUUCAAGCAAUGGGUC [Fam1B.1 aminoacylation ribozyme variant] | 0.537 | 0.735 | 0.646 | 0.656 | 0.627 | 0.419
AUUACCCUGGUCAUCGGGUUA [Fam2.1 aminoacylation ribozyme variant] | 38.5 | 218 | 12.3 | 17.8 | 42.4 | 45.8
CUUCACCUAGGUCAUCGGGUG [Fam2.2 aminoacylation ribozyme variant] | 7.51 | 34.6 | 4.63 | 5.18 | 9 | 6.65
AUUCACCAAGGUCAUCGGUUG [Fam2.2 aminoacylation ribozyme variant] | 1.55 | 9.05 | 1.42 | 1.39 | 1.72 | 1.69
AGUCACCUAGGUCAUCCGGUG [Fam2.2 aminoacylation ribozyme variant] | 6.2 | 56.9 | 5.6 | 5.32 | 6.49 | 7.84
AAGUUUGCUAACAGUCUCAAG [Fam3.1 aminoacylation ribozyme variant] | 0.713 | 4.44 | 0.979 | 0.694 | 0.733 | 1.64
AUCCACAUAGGUCAUCGGGUG [Fam2.2 aminoacylation ribozyme variant] | 10.1 | 78.8 | 5.82 | 6.77 | 12.1 | 8.91
AUUACACUGGUCAUCGAGUGC [Fam2.1 aminoacylation ribozyme variant] | 1.32 | 0.887 | 1.06 | 1.05 | 1.38 | 1.56
CUACUGCAUACAAUCGGUCUG [Fam1A.1 aminoacylation ribozyme variant] | 0.612 | 0.959 | 0.677 | 0.643 | 0.577 | 0.659
ACACCCUUCAAGCAAUCGGUC [Fam1B.1 aminoacylation ribozyme variant] | 0.897 | 2.12 | 1.01 | 1.02 | 0.984 | 1.59
AUUCACCUAGGUAAACGGGUG [Fam2.2 aminoacylation ribozyme variant] | 3.77 | 22.9 | 1.97 | 2.27 | 4.47 | 3.84
CCACACUUCAAGAAACCGGUC [Fam1B.1 aminoacylation ribozyme variant] | 0.798 | 0.875 | 0.998 | 0.824 | 1.17 | 0.931
ACUCGCCUAGGUCAUCGGGUG [Fam2.2 aminoacylation ribozyme variant] | 9.99 | 62.9 | 6.84 | 6.73 | 11 | 10.9
AUUCACGUAGGUCAUCCGGUG [Fam2.2 aminoacylation ribozyme variant] | 13.2 | 120 | 7.72 | 8.57 | 17 | 12.1
AAGUUUGCUCAUAGGCGCAAG [Fam3.1 aminoacylation ribozyme variant] | 0.839 | 0.996 | 0.735 | 0.852 | 0.577 | 0.876
AUUCACCUAGGUCAUGGGGUA [Fam2.2 aminoacylation ribozyme variant] | 2.13 | 1 | 1.96 | 1.83 | 1.88 | 1.56
AUUACCCGGGUCAUCGAGUAA [Fam2.1 aminoacylation ribozyme variant] | 1.91 | 8.59 | 2.05 | 1.58 | 1.54 | 3.56
CUACUUAAAACUAUCGGUCUG [Fam1A.1 aminoacylation ribozyme variant] | 0.922 | 0.83 | 1.11 | 1.06 | 0.97 | 0.746
CUACUCCAAACAAUCGGUCUG [Fam1A.1 aminoacylation ribozyme variant] | 0.786 | 3.09 | 0.801 | 0.825 | 0.731 | 1.95
GCACACUUCAAGGAAUCGGUC [Fam1B.1 aminoacylation ribozyme variant] | 1.55 | 3.95 | 1.67 | 1.22 | 1.61 | 4.35
CCACUCUUCAAGCCAUCGGUC [Fam1B.1 aminoacylation ribozyme variant] | 1.1 | 0.734 | 1.09 | 1.21 | 1.15 | 0.953
CCACACUUCAAGUAAUCGGUG [Fam1B.1 aminoacylation ribozyme variant] | 4.68 | 33.4 | 3.28 | 2.98 | 6.33 | 4.68

Sequence | self-aminoacylation (biotinyl-Met-oxazolone) | self-aminoacylation (biotinyl-Phe-oxazolone) | self-aminoacylation (biotinyl-Ile-oxazolone) | self-aminoacylation (biotinyl-Val-oxazolone) | self-aminoacylation (biotinyl-Leu-oxazolone) | self-aminoacylation (biotinyl-Trp-oxazolone)
CUCCACCUAGGUCAUCGGGUG [Fam2.2 aminoacylation ribozyme variant] | 5.98 | 36.3 | 3.95 | 5.19 | 5.74 | 7.04
GUACUUCAGACAAUCGGUCUG [Fam1A.1 aminoacylation ribozyme variant] | 1.2 | 4.98 | 1.22 | 1.06 | 1.32 | 1.56
AUUUCCCUGUUCAUCGAGUGA [Fam2.1 aminoacylation ribozyme variant] | 5.22 | 11.4 | 2.79 | 3.09 | 5.04 | 5.62
GCACACUUCUAGCAAUCGGUC [Fam1B.1 aminoacylation ribozyme variant] | 0.936 | 1.34 | 1.2 | 1.22 | 0.999 | 1.28
AUUCACCUCGGUCAUCGGGUA [Fam2.2 aminoacylation ribozyme variant] | 3.24 | 17 | 2.96 | 3.25 | 2.87 | 3.95
AUAACCCUGGUCAUAGAGUGA [Fam2.1 aminoacylation ribozyme variant] | 8.34 | 49 | 3.62 | 3.61 | 8.65 | 9.78
AUUAACCUUGGUCAUCGGGUG [Fam2.2 aminoacylation ribozyme variant] | 6.37 | 41.7 | 3.91 | 4.16 | 8.28 | 7.04
AUUCCCCUAGGUCAUCGUGUG [Fam2.2 aminoacylation ribozyme variant] | 3.02 | 20.7 | 3.28 | 4.25 | 4.37 | 4.05
CCACCCUGCAAGCAAUCGGUC [Fam1B.1 aminoacylation ribozyme variant] | 1.3 | 1.28 | 1.42 | 1.73 | 1.17 | 1.23
CCACACUUCACGUAAUCGGUC [Fam1B.1 aminoacylation ribozyme variant] | 0.822 | 0.967 | 0.892 | 0.914 | 0.733 | 0.591
CCACACUUCAAGCAGCCGGUC [Fam1B.1 aminoacylation ribozyme variant] | 1.32 | 0.916 | 1.97 | 1.56 | 1.82 | 1.68
CCGCAUUUCAAGCAAUCGGUC [Fam1B.1 aminoacylation ribozyme variant] | 1.92 | 16.8 | 2.36 | 2.48 | 2.72 | 14.3
CUAUUUCAAACAUUCGGUCUG [Fam1A.1 aminoacylation ribozyme variant] | 1.3 | 0.835 | 1.18 | 1.3 | 1.16 | 1.16
CCACACUACAAGCAAUCGUUC [Fam1B.1 aminoacylation ribozyme variant] | 0.548 | 0.644 | 0.643 | 0.679 | 0.54 | 0.468
AUUCACCAAGGUUAUCGGGUG [Fam2.2 aminoacylation ribozyme variant] | 7.8 | 63.7 | 4.45 | 4.4 | 8.94 | 6.57
AUUAACCUAGGUCAUCGCGUG [Fam2.2 aminoacylation ribozyme variant] | 6.95 | 59.2 | 4.57 | 4.66 | 10.2 | 7.14
CUACUUCAAACGAUGGGUCUG [Fam1A.1 aminoacylation ribozyme variant] | 0.58 | 0.674 | 0.746 | 1 | 0.764 | 0.62
AAUUUUGCUAAUAGGCGCAAG [Fam3.1 aminoacylation ribozyme variant] | 1.43 | 1.5 | 1.57 | 1.28 | 1.12 | 1.71
CCAGACUUCAAGCAAUCUGUC [Fam1B.1 aminoacylation ribozyme variant] | 0.444 | 0.591 | 0.467 | 0.576 | 0.45 | 0.309
AAGUUUGCUAAUAGUGGGAAG [Fam3.1 aminoacylation ribozyme variant] | 0.971 | 1.48 | 0.841 | 1.03 | 0.876 | 0.598
AUUCACCUAGGUCAUCAGUUG [Fam2.2 aminoacylation ribozyme variant] | 0.88 | 0.935 | 0.954 | 0.939 | 0.942 | 0.698
AAGUUUGCUAAUAGGCGCGAG [Fam3.1 aminoacylation ribozyme variant] | 0.819 | 1.2 | 1.16 | 0.9 | 0.954 | 1.42
AAUUUUGCUAAUAGUCGCGAG [Fam3.1 aminoacylation ribozyme variant] | 1.99 | 8.52 | 2.28 | 1.51 | 1.7 | 2.02
AGGUUUGCUAAUAGGCGCAAG [Fam3.1 aminoacylation ribozyme variant] | 0.736 | 1.16 | 0.85 | 0.734 | 0.626 | 1.18
CCACACUUGAAGCCAUCGGUC [Fam1B.1 aminoacylation ribozyme variant] | 1.24 | 0.99 | 1.24 | 1.47 | 0.811 | 1.6
